Paper PMC7549910

Columns and labels:
human factor H (human) [1] = molecular target: human factor H (human) (UniProt P08603); experiment: SPR; BIAcore X100 Plus; factor H amine-coupled to a CM5 chip (712 RU); recombinant EF-Tu 0-14 uM as analyte in HBS-EP (10 mM HEPES, 150 mM NaCl, 3 mM EDTA, 0.05% P20), 30 uL/min, 180 s, 20°C
[2] = molecular target: elongation factor Tu (EF-Tu) of M. hyopneumoniae strain 168, endogenous (M. hyopneumoniae (endogenous in strain 168))
human factor H (human) [3] = molecular target: human factor H (human) (UniProt P08603)

human factor H (human), sequence (P08603 19-1231): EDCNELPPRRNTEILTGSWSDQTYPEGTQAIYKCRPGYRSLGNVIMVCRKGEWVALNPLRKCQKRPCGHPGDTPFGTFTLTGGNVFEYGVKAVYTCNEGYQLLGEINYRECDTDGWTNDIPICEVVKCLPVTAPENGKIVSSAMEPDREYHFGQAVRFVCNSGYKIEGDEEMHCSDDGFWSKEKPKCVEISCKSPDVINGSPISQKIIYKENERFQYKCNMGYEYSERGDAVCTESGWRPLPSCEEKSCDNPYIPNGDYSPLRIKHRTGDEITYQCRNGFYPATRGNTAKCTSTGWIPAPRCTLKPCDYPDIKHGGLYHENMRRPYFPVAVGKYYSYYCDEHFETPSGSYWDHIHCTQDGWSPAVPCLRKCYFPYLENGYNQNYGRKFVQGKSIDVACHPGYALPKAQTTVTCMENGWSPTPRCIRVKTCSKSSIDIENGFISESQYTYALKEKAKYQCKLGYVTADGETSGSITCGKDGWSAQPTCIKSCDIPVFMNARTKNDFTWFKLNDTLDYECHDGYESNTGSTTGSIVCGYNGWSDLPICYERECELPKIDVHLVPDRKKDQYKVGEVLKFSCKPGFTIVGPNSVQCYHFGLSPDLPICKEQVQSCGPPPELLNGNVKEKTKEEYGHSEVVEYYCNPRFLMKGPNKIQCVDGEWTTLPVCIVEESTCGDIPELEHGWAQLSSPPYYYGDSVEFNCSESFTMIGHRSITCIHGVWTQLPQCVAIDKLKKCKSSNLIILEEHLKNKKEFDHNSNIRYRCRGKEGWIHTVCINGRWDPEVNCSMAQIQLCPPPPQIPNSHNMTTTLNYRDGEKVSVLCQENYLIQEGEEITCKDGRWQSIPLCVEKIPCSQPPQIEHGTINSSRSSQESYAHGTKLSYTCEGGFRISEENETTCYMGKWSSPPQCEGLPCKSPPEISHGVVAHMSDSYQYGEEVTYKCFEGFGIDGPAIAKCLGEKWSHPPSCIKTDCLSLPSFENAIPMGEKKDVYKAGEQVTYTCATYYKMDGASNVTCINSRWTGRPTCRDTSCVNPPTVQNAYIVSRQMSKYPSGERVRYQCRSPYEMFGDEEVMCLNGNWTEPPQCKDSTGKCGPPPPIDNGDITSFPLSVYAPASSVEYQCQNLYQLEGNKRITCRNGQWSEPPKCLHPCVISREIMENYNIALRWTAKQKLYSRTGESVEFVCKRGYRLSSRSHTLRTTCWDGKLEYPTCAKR
human factor H, sequence (P08603 19-1231): as above
recombinant full-length EF-Tu of M. hyopneumoniae, sequence (Q4A7K0 whole entry): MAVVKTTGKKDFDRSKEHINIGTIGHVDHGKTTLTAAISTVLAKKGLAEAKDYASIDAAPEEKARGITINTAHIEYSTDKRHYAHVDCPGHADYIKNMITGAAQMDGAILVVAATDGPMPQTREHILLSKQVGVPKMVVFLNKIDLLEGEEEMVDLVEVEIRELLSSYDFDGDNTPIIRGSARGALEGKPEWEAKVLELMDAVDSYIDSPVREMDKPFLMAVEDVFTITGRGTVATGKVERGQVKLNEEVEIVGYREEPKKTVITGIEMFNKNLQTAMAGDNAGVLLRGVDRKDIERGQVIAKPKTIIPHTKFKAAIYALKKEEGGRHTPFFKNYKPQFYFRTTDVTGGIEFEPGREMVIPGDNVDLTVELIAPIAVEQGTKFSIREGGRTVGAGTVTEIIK
elongation factor Tu (EF-Tu) of M. hyopneumoniae strain 168, endogenous (M. hyopneumoniae (endogenous in strain 168)), sequence (Q4A7K0 whole entry): as above
elongation factor Tu (EF-Tu) of M. hyopneumoniae strain 168, endogenous (natural protein), sequence (Q4A7K0 whole entry): as above

Q: With “recombinant full-length EF-Tu of M. hyopneumoniae (from UniProt Q4A7K0 1-402) (natural protein; other documents disagree on this pair)” as the substance, how does the Kd (human factor H (human) [1]) read?
A: 7.83 µM

Q: With “human factor H (from UniProt P08603 19-1231) (natural protein)” as the substance, how does the C3 fragment deposition on M. hyopneumoniae cells by flow cytometry, anti-EF-Tu antibodies against preimmune sera, with factor H [2] read?
A: 8 fold

Q: “elongation factor Tu (EF-Tu) of M. hyopneumoniae strain 168, endogenous (natural protein)” was tested. Which binding of M. hyopneumoniae cells to factor H immobilised on 96-well plates (qPCR count) after preincubation with anti-EF-Tu polyclonal antibodies against preimmune serum (human factor H (human) [3]) did it give?
A: 47.7%
